Patent publication US20240025997A1 (NGM BIOPHARMACEUTICALS, published 2024)

Legend:
soluble human ILT2-ECD [1] = target: T1, soluble human ILT2-ECD (human, UniProt Q8NHL6 24-461); assay: SPR (Biacore) as described in Example 3, low resolution parameters
T1 construct: also called LILRB1 extracellular domain
Protocol: (§1) The binding affinities of anti-ILT2 and anti-ILT4 antibodies were measured using a Biacore system (GE Healthcare LifeSciences). Equilibrium dissociation constant (KD) measurements were carried out with purified antibodies to evaluate their binding to human ILT2, human ILT4, and rhesus ILT2. Briefly, purified anti-ILT2 antibody 27F9, anti-ILT4 antibodies 47C8 and 48A5, and anti-ILT2/ILT4 antibodies 47H6, 51A1, 64A12, 73C4, and 73D1 were captured on a Sensor Chip Protein A (GE HealthCare). The surface of the Biacore Sensor Chip Protein A consists of a carboxymethylated dextran matrix with a recombinant Protein A variant covalently attached. Soluble human ILT2-ECD, human ILT4-ECD, or rhesus ILT2-ECD were injected at a flow rate of 30 μL/min at 25° C. The ILT2 or ILT4 proteins were used at concentrations ranging from 1.6-200 nM in PBS-P buffer with 2 fold dilutions. Kinetic data were collected over time and fit using the simultaneous global fit equation to yield affinity constants (KD values) for each antibody.
(§2) The binding affinities of the humanized antibodies to human ILT2 and human ILT4 were measured using a Biacore system as described herein. The binding affinities of antibodies Hz47H6.v2, Hz64A12, and Hz73D1.v1 are shown in Table 11 as compared with the parental antibodies.

soluble human ILT4-ECD [2] = target: T2, soluble human ILT4-ECD (human, UniProt Q8N423 22-460); assay: as above
T2 construct: also called LILRB2 extracellular domain
Protocol: as §1, §2

soluble human ILT2-ECD [3] = target: T1, soluble human ILT2-ECD; assay: SPR (Biacore) as described in Example 3
Protocol: as §1, §2

soluble human ILT4-ECD [4] = target: T2, soluble human ILT4-ECD; assay: SPR (Biacore) as described in Example 3
Protocol: as §1, §2

soluble human ILT2-ECD [5] = target: T1, soluble human ILT2-ECD; assay: SPR (Biacore), antibody captured on Protein A chip, soluble ILT-ECD injected (1.6-200 nM), 25 C
Protocol: as §1

soluble human ILT4-ECD [6] = target: T2, soluble human ILT4-ECD; assay: as above
Protocol: as §1

soluble human ILT2-ECD [7] = target: T1, soluble human ILT2-ECD; assay: SPR (Biacore), antibody captured on Protein A chip, soluble ILT-ECD injected, 25 C, low resolution parameters
Protocol: as §1

soluble human ILT4-ECD [8] = target: T2, soluble human ILT4-ECD; assay: as above
Protocol: as §1

[9] = target: T3, cynomolgus monkey ILT2 on cells (cynomolgus monkey); assay: flow cytometry, fluorescently labelled antibody on CD14+ monocytes of cyno PBMC, donor Cyno 1, geometric MFI
T3 construct: also called cyno ILT2; ILT2 on cyno CD14+ monocytes
Protocol: (§3) The binding of anti-ILT2/ILT4 antibodies to monocytes was evaluated. The binding of exemplary anti-ILT2/ILT4 antibody 73D1 and the humanized version Hz73D1.v1 to the CD14+ monocyte population of human and cyno PBMC were determined by flow cytometry analysis. Briefly, human or cyno PBMCs (from 2 donors each) were thawed, washed in media (RPMI, 10% FBS, L-glutamine, pen/strep), and resuspended in fresh media. PBMCs were stained with a cocktail of labeled antibodies to differentiate between the different cell types. 1×10⁶ cells/well were stained with fluorescently-labelled 73D1 or Hz73D1.v1 antibody and incubated on ice. The cells were washed with ice-cold reagents and immediately analyzed by flow cytometry. The geometric mean fluorescence intensity for CD14+ monocytes was calculated for each sample. […] For example, the 50% effective concentration (EC₅₀) of Hz73D1.v1 was 8.8 nM with human monocytes and 1.8 nM with cyno monocytes.

[10] = target: T3, cynomolgus monkey ILT2 on cells; assay: flow cytometry, fluorescently labelled antibody on CD14+ monocytes of cyno PBMC, donor Cyno 2, geometric MFI
Protocol: as §3

human ILT4 on cells = target: T4, human ILT4 on cells (human, UniProt Q8N423 22-597); assay: flow cytometry, fluorescently labelled antibody on immune cell subsets of PBMC / red-cell-depleted whole blood
T4 construct: also called LILRB2; human ILT4 expressed on 293T cells
Protocol: Flow cytometry analysis of blood immune cells was performed on human and cyno PBMC and whole blood. PBMC were prepared from a leukopak (Allcells Inc.) by centrifugation through ficoll, washing with PBS and freezing in cryopreservation buffer in liquid nitrogen until use. Whole blood (Allcells Inc.) was obtained fresh and red blood cells (RBC) depleted using ammonium chloride RBC lysing solution (Biolegend). PBMC or whole blood samples were stained with a fluorescently labeled antibody panel to distinguish various immune subsets (monocytes, B cells, NK cells, CD4+ and CD8+ T cells, neutrophils and eosinophils). Samples were further stained with fluorescently labeled isotype, 27F9 (ILT2 specific), 48A5 (ILT4 specific), 73D1, and Hz73D1.v1. The number of ILT2 and ILT4 molecules per cell of each immune subset was estimated by incubation with Quantum Simply Cellular microspheres followed by flow cytometry analysis.

T2 sequence (Q8N423 other isoform, or with tags, fused parts or gaps): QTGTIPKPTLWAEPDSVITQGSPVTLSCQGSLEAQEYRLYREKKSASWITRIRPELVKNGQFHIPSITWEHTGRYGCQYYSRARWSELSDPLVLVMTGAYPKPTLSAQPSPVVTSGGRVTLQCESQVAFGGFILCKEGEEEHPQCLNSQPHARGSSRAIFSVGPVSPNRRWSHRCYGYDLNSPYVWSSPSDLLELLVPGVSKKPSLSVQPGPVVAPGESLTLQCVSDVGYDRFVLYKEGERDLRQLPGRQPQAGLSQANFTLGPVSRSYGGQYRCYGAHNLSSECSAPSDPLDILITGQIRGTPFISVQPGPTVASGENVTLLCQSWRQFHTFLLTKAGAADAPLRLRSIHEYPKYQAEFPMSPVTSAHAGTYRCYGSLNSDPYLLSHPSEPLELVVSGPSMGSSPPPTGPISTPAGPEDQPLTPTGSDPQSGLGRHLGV
T1 sequence (Q8NHL6 24-461): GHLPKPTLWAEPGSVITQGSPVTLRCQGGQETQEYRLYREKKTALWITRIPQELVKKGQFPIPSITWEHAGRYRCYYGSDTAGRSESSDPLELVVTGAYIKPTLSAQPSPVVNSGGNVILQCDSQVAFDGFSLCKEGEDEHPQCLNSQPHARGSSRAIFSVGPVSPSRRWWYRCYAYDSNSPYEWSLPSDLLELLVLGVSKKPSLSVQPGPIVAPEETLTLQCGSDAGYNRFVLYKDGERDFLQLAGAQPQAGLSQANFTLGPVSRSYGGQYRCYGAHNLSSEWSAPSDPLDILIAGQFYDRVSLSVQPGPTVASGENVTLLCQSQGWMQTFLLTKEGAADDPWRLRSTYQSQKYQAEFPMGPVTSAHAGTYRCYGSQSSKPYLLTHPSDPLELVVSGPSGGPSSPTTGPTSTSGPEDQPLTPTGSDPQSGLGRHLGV
T3 sequence (chain, as listed by the source): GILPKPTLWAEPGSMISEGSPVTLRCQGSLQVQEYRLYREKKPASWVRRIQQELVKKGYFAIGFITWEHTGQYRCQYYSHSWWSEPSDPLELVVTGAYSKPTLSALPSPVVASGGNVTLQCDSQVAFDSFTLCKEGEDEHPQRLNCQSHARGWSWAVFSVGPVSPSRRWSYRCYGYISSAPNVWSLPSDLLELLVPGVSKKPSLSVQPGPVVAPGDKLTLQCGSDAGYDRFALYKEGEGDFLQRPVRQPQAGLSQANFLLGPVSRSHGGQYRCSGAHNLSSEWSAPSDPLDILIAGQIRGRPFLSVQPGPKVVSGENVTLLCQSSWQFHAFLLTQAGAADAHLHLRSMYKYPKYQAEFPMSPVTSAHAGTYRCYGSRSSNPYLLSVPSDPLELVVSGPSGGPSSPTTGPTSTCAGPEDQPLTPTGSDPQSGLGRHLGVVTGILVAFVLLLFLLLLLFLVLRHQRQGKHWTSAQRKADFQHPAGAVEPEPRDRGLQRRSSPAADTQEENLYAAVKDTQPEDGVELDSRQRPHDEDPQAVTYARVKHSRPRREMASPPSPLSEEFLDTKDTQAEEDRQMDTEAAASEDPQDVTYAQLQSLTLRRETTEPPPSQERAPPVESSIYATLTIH
T4 sequence (Q8N423 other isoform, or with tags, fused parts or gaps): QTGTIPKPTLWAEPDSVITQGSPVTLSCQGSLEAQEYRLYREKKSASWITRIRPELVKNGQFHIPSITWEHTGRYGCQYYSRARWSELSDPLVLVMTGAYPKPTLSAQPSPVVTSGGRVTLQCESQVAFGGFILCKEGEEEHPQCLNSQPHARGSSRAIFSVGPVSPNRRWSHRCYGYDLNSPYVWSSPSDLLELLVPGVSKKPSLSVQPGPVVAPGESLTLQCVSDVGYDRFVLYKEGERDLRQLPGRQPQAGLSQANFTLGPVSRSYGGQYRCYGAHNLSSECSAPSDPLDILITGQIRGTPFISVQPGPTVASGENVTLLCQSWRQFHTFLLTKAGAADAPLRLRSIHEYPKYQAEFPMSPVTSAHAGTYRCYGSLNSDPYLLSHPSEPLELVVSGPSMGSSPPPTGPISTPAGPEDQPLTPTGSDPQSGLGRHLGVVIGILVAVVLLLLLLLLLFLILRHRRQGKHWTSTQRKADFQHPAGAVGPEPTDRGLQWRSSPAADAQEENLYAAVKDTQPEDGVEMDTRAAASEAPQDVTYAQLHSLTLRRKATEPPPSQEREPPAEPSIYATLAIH

B1: humanized anti-ILT2/ILT4 antibody Hz64A12 (antibody, human IgG1, kappa, N297G, V domains shown)
VH: EVQLVESGGGLVQPGGSLRLSCAASGFTFNTYAMHWVRQAPGKGLEWVARIRSKSSNYATYYADSVKDRFTISRDDAKNSLYLQMNSLRAEDTAVYYCARDGIYYYDTMYYYAMDYWGQGTLVTVSS
VL: NIVLTQSPDSLAVSLGERATINCRASESVDYYGNSFIYWYQQKPGQPPKLLIYFASNLESGVPDRFSGSGSGTDFTLTISSLQAEDVAVYYCQQNNEDPWTFGGGTKVEIKR
notes: Human IgG1 constant region with G at position 297, human kappa
Kd (soluble human ILT2-ECD [1]): 1.6 nM
koff (soluble human ILT2-ECD [1]): 0.00014 s⁻¹
kon (soluble human ILT2-ECD [1]): 93000 M⁻¹ s⁻¹
Kd (soluble human ILT4-ECD [2]): < 0.1 nM
koff (soluble human ILT4-ECD [2]): ~1e-05 s⁻¹
kon (soluble human ILT4-ECD [2]): 300000 M⁻¹ s⁻¹

B2: anti-ILT2/ILT4 antibody 47H6 (antibody, V domains shown)
VH: EVQLQQSGPELVKPGASVKISCKASGYTFTDYYMNWVKQSHGKSLEWIGDFNPNNGGTTYNQKFEGKATLTVDKSSNTAYMDLRSLTSEDSAVYYCARGRFYYGSLYSFDYWGQGTTLTVSS
VL: DIQMTQSPASLSASVGETVTITCRASGNIHNYLAWYQQKQGKSPHLLVYNAKTLADGVPSRFSGSGSGTQYSLKINNLQPEDFGSYYCQHFWTSITFGAGTKLDLK
notes: Mouse hybridoma antibody
Kd (soluble human ILT2-ECD [3]): 0.2 nM
koff (soluble human ILT2-ECD [3]): 2.1e-05 s⁻¹
kon (soluble human ILT2-ECD [3]): 100000 M⁻¹ s⁻¹
Kd (soluble human ILT4-ECD [4]): 0.2 nM
koff (soluble human ILT4-ECD [4]): 2.1e-05 s⁻¹
kon (soluble human ILT4-ECD [4]): 100000 M⁻¹ s⁻¹
Kd (soluble human ILT2-ECD [5]): 2.1 nM
koff (soluble human ILT2-ECD [5]): 8.6e-05 s⁻¹
kon (soluble human ILT2-ECD [5]): 42000 M⁻¹ s⁻¹
Kd (soluble human ILT4-ECD [6]): 0.76 nM
koff (soluble human ILT4-ECD [6]): 2.8e-05 s⁻¹
kon (soluble human ILT4-ECD [6]): 37000 M⁻¹ s⁻¹

B3: humanized anti-ILT2/ILT4 antibody Hz47H6.v2 (antibody, human IgG1, kappa, N297G, V domains shown)
VH: QVQLVQSGAEVKKPGASVKVSCKASGYTFTDYYMNWVRQAPGQRLEWIGDFNPNNAGTTYNQKFEGRVTITVDKSASTAYMELSSLRSEDTAVYYCARGRFYYGSLYSFDYWGQGTLVTVSS
VL: DIQMTQSPSSLSASVGDRVTITCRASGNIHNYLAWYQQKPGKAPKLLIYNAKTLADGVPSRFSGSGSGTDFTLTISSLQPEDFATYYCQHFWTSITFGPGTKVDIKR
Kd (soluble human ILT2-ECD [3]): 4 nM
koff (soluble human ILT2-ECD [3]): 0.0009 s⁻¹
kon (soluble human ILT2-ECD [3]): 230000 M⁻¹ s⁻¹
Kd (soluble human ILT4-ECD [4]): 2 nM
koff (soluble human ILT4-ECD [4]): 0.00018 s⁻¹
kon (soluble human ILT4-ECD [4]): 87000 M⁻¹ s⁻¹

B4: anti-ILT2/ILT4 antibody 73C4 (antibody, V domains shown)
VH: AVQLQQSGPELVKPGASVKISCKASGYTFTDYYMNWVKQSHGKSLEWIGNVNPNNGGTSYNQKFKGKATLTVDKSSSTAYMELRSLTSEDSAVYYCARREIYFYGTIYYYAMDYWGQGTSVTVSS
VL: DIVLTQSPASLAVSLGQRATISCRASESVDYYGNSFMYWYQQKPGRPPNLLIYFASNLESGVPARFSGSGSRTDFTLTIDPVEADDAATYYCQQNNEDPWTFGGGTKLEIK
notes: Mouse hybridoma antibody
Kd (soluble human ILT2-ECD [7]): < 0.1 nM
koff (soluble human ILT2-ECD [7]): ~1e-05 s⁻¹
kon (soluble human ILT2-ECD [7]): 31000 M⁻¹ s⁻¹
Kd (soluble human ILT4-ECD [8]): < 0.1 nM
koff (soluble human ILT4-ECD [8]): ~1e-05 s⁻¹
kon (soluble human ILT4-ECD [8]): 97000 M⁻¹ s⁻¹

B5: anti-ILT2/ILT4 antibody 51A1 (antibody, V domains shown)
VH: EVQLVESGGGLVQPKGSLKLSCAASGFTFNTYAMHWVRQAPGKGLEWVARIRSKSSNYATYYADSVKDRFTISRDDSQSMLYLQMNNLKTEDTAMYYCVRDGIYYYGTMYYYAMDYWGQGTSVTVSS
VL: NIVLTQSPASLAVSLGQRATISCRASESVDYYGNSFMYWYQQKPGQPPKLLIYFASNLESGVPARFSGSGSRTDFTLTIDPVEAADAASYYCQQNNEDPWTFGGGTKLEIK
notes: Mouse hybridoma antibody
Kd (soluble human ILT2-ECD [5]): 5.8 nM
koff (soluble human ILT2-ECD [5]): 0.00022 s⁻¹
kon (soluble human ILT2-ECD [5]): 39000 M⁻¹ s⁻¹
Kd (soluble human ILT4-ECD [6]): 0.2 nM
koff (soluble human ILT4-ECD [6]): 1.4e-05 s⁻¹
kon (soluble human ILT4-ECD [6]): 68000 M⁻¹ s⁻¹

B6: anti-ILT2/ILT4 antibody 64A12 (antibody, V domains shown)
VH: EVQLVESGGGLVQPKGSLKLSCAASGFTFNTYAMHWVRQAPGKGLEWVARIRSKSSNYATYYADSVKDRFTISRDDSQSMLYLQMNNLKTEDTAMYYCVRDGIYYYDTMYYYAMDYWGQGTSVTVSS
VL: NIVLTQSPASLAVSLGQRATISCRASESVDYYGNSFIYWYQQKPGQPPKLLIYFASNLESGVPARFSGSGSRTDFTLTIDPVEAADAASYYCQQNNEDPWTFGGGTKLEIK
notes: Mouse hybridoma antibody
Kd (soluble human ILT2-ECD [1]): < 0.1 nM
koff (soluble human ILT2-ECD [1]): ~1e-05 s⁻¹
kon (soluble human ILT2-ECD [1]): 20000 M⁻¹ s⁻¹
Kd (soluble human ILT4-ECD [2]): < 0.1 nM
koff (soluble human ILT4-ECD [2]): ~1e-05 s⁻¹
kon (soluble human ILT4-ECD [2]): 82000 M⁻¹ s⁻¹
Kd (soluble human ILT2-ECD [7]): < 0.1 nM
koff (soluble human ILT2-ECD [7]): ~1e-05 s⁻¹
kon (soluble human ILT2-ECD [7]): 20000 M⁻¹ s⁻¹
Kd (soluble human ILT4-ECD [8]): < 0.1 nM
koff (soluble human ILT4-ECD [8]): ~1e-05 s⁻¹
kon (soluble human ILT4-ECD [8]): 82000 M⁻¹ s⁻¹

B7: anti-ILT2/ILT4 antibody 73D1 (antibody, V domains shown)
VH: AVQLQQSGPELVKPGASVKISCKASGYTFTDYYINWVKQSHGKSLQWIGNVNPNDGGTTYNQKFKGKATLTVDKSSSTAYMELRSLTSEDSAVYYCARREIYFYGTIYYYAMDYWGQGTSVTVSS
VL: DIVLTQSPASLAVSLGQRATISCRASESVDYYGNSFMYWYQQKPGRPPNLLIYFASNLESGVPARFSGSGSRTDFTLTIDPVEADDAATYYCQQNNEDPWTFGGGTKLEIK
notes: Mouse hybridoma antibody; Shares its light chain variable region with 73C4
Kd (soluble human ILT2-ECD [3]): 1.8 nM
koff (soluble human ILT2-ECD [3]): 0.00024 s⁻¹
kon (soluble human ILT2-ECD [3]): 150000 M⁻¹ s⁻¹
Kd (soluble human ILT4-ECD [4]): 0.74 nM
koff (soluble human ILT4-ECD [4]): 0.0003 s⁻¹
kon (soluble human ILT4-ECD [4]): 400000 M⁻¹ s⁻¹
Kd (soluble human ILT2-ECD [5]): 1.2 nM
koff (soluble human ILT2-ECD [5]): 6e-05 s⁻¹
kon (soluble human ILT2-ECD [5]): 50000 M⁻¹ s⁻¹
Kd (soluble human ILT4-ECD [6]): 0.18 nM
koff (soluble human ILT4-ECD [6]): 5.4e-05 s⁻¹
kon (soluble human ILT4-ECD [6]): 300000 M⁻¹ s⁻¹
EC50 (read off the curve) [9]: ~0.7 nM
EC50 (read off the curve) [10]: ~0.9 nM
binding result (human ILT4 on cells): binds
